This note sets out measurements from publication PMC7921410, “Structure of mammalian Mediator complex reveals Tail module architecture and interaction with a conserved core” (Nature Communications, 2021).

What all share (assay): cryo-EM structure; endogenous mouse Mediator immunopurified from CH12 nuclear extract through 3×FLAG-MED19 or 3×FLAG-MED25; eluted in 50 mM HEPES pH 7.9, 100 mM KCl, 5% glycerol, 1 mM EDTA, 0.005% NP-40; map at 4.0 Å overall, focused refinement of the MED1 and knob/hook ends (6-10 Å)
Holding throughout (conditions): both partners purified

Assay [1] deals with T1, MED17 (mouse (Mus musculus; endogenous in CH12), UniProt Q8VCD5 1-649).
T1 construct: MED17, Mus musculus, endogenous Head module scaffold subunit of Mediator; source: endogenous, CH12 mouse B lymphoma nuclear extract; immunopurified as part of Mediator (FLAG M2 agarose, FLAG peptide elution)
T1 sequence (looked up): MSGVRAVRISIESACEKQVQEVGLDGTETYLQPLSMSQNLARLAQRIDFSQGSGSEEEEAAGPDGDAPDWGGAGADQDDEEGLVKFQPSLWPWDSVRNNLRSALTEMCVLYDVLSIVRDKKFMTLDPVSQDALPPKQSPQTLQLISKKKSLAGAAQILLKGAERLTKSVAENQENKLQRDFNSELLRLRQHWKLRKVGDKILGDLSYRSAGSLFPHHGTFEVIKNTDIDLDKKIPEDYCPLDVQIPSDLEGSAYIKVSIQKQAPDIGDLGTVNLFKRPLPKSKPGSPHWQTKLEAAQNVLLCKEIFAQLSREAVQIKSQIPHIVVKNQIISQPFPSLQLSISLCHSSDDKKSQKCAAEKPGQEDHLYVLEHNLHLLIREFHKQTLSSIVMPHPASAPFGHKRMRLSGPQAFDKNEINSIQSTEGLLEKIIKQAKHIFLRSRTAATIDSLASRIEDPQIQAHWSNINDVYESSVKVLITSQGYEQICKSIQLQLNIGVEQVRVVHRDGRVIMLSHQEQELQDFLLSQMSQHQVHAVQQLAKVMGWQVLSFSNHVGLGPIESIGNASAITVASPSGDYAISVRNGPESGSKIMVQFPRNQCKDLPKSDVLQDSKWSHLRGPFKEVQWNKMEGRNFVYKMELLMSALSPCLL

Assay [2] concerns the target T2, MED27 (mouse (Mus musculus; endogenous in CH12), UniProt Q9DB40 1-311).
T2 construct: MED27, Mus musculus, endogenous upper Tail subunit of Mediator; source: endogenous, CH12 mouse B lymphoma nuclear extract; immunopurified as part of Mediator (FLAG M2 agarose, FLAG peptide elution)
T2 sequence (looked up): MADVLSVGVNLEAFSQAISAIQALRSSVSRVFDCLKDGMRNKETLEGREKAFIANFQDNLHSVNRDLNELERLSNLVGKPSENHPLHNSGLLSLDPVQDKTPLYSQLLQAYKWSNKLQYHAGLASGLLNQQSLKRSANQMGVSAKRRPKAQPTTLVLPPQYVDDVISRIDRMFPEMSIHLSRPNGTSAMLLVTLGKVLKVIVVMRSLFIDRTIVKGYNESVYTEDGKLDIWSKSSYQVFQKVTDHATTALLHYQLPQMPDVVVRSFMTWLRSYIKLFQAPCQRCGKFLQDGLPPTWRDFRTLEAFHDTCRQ

Assay [3] deals with T3, MED24 (mouse (Mus musculus; endogenous in CH12), UniProt Q99K74 1-987).
T3 construct: MED24, Mus musculus, endogenous lower Tail subunit of Mediator; source: endogenous, CH12 mouse B lymphoma nuclear extract; immunopurified as part of Mediator (FLAG M2 agarose, FLAG peptide elution)
T3 sequence (looked up): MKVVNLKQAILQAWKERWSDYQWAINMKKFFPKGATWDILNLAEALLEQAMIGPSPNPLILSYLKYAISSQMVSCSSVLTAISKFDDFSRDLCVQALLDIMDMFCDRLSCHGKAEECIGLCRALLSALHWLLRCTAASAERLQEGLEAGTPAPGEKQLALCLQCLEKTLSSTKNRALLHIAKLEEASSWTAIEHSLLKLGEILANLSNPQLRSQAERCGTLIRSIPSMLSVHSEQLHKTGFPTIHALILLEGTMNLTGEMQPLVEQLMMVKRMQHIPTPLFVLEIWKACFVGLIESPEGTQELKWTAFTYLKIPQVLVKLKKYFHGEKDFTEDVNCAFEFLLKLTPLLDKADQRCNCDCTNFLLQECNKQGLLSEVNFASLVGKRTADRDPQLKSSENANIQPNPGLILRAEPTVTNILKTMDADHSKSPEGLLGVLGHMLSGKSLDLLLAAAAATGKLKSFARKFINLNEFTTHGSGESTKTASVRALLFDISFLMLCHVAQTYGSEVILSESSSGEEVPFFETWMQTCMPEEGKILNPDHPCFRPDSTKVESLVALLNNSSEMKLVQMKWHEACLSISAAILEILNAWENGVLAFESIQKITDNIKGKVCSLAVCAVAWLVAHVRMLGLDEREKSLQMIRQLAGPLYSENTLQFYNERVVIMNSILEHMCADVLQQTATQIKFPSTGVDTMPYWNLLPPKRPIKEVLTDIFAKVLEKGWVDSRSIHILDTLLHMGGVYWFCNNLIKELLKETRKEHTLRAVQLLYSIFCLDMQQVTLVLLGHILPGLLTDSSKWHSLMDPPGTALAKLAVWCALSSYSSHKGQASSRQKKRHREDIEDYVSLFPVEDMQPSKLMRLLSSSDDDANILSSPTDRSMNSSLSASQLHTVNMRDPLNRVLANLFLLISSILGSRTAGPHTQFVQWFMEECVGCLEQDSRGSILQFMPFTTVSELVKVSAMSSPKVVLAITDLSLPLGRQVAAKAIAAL

Assay [4] concerns the target T4, MED23 (mouse (Mus musculus; endogenous in CH12), UniProt Q80YQ2 1-1367).
T4 construct: MED23, Mus musculus, endogenous lower Tail subunit of Mediator; Model building started from the X-ray structure of human MED23 (PDB 6H02); source: endogenous, CH12 mouse B lymphoma nuclear extract; immunopurified as part of Mediator (FLAG M2 agarose, FLAG peptide elution)
T4 sequence (looked up): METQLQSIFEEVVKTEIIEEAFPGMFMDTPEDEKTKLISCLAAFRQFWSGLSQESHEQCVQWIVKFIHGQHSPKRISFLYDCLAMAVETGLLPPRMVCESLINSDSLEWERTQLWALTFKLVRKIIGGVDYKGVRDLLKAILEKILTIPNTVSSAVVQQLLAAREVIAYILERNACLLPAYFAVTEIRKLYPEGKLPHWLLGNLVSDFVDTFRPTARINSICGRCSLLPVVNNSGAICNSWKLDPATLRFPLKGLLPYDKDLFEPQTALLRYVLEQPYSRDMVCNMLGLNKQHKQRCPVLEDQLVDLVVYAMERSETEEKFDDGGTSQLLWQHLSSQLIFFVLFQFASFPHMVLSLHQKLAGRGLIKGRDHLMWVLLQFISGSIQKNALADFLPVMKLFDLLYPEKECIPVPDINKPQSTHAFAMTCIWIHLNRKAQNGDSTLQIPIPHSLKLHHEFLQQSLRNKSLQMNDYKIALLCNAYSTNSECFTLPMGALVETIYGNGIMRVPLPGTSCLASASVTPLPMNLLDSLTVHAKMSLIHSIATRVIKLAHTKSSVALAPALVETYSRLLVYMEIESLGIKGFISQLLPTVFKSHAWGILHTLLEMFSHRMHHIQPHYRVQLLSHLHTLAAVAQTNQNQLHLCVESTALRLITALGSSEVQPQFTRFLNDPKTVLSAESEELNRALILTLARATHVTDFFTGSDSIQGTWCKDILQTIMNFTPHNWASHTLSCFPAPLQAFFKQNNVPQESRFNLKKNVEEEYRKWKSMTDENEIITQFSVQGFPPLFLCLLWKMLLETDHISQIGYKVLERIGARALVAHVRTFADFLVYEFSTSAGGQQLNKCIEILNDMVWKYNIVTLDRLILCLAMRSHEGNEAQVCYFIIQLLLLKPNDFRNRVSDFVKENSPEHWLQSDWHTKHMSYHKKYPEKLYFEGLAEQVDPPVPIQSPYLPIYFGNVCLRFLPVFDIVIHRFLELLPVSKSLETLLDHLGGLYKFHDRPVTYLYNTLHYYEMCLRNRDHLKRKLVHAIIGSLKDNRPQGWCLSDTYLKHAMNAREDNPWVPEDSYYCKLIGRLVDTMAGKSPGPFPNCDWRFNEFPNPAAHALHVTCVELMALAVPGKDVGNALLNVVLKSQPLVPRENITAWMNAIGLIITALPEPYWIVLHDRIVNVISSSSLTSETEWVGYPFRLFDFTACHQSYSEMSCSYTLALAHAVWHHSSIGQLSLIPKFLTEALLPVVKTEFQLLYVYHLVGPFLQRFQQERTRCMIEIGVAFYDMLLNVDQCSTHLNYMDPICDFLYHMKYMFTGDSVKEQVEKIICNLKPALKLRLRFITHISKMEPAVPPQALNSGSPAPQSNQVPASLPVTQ

B1: MED20 (natural protein, mouse (Mus musculus; endogenous in CH12), UniProt Q9R0X0 1-212, looked up)
chain: MGVTCVSQMPVAEGKSLQQTVELLTKKLEMLGAEKQGTFCVDCETYHTAASTLGSQGQAGKLMYVMHNSEYPLSCFALFENGPCLIADTNFDVLMVKLKGFFQSAKASKIETRGTRYQYCDFLVKVGTVTMGPSARGISVEVEYGPCVVASDCWSLLLEFLQSFLGSHAPGAPTVFGNRHDAVYGPADTMIQYMELFNKIRKQQQVPVAGIR
notes: MED20, Mus musculus, endogenous Head module subunit of Mediator; source: endogenous, CH12 mouse B lymphoma nuclear extract; immunopurified as part of Mediator (FLAG M2 agarose, FLAG peptide elution)
Consider B1, for which the binding result in assay [1] and in assay [2] was “binds” in each case.

B2: MED22 (natural protein, mouse (Mus musculus; endogenous in CH12), UniProt Q62276 1-200, looked up)
chain: MAQQRALPQSKETLLQSYNKRLKDDIKSIMDNFTEIIKTAKIEDETQVSRATQGEQDNYEMHVRAANIVRAGESLMKLVSDLKQFLILNDFPSVNEAIDQRNQQLRALQEECDRKLITLRDEVSIDLYELEEEYYSSSSSLCEANDLPLCEAYWRLDLDADSADGLSAPLLASPETGAGPLQSAAPVHSHGGGPGPTEHT
notes: MED22, Mus musculus, endogenous Head module subunit of Mediator; source: endogenous, CH12 mouse B lymphoma nuclear extract; immunopurified as part of Mediator (FLAG M2 agarose, FLAG peptide elution)
In the case of B2, the binding result in assay [1] is on record as “binds”.

B3: MED16 (natural protein, mouse (Mus musculus; endogenous in CH12), UniProt Q6PGF3 1-828, looked up)
chain: MDLAYVCEWEKWAKSTYCPSLPLACAWSCRNLIAFTTDLRNDDQDLTHMIHILDTEHPWEVHSVSSGHSEAITCLEWDQSGSRLLSADADGQIKCWSMADHLANSWESSVGSQVEGDPIVALSWLHNGVKLALHVEKSGASSFGEKFSRVKFSPSLTLFGGKPMEGWIAVTVSGLVTVSLLKPSGQVLTSTESLCRLRGRVALADIAFTGGGNIVVAAADGSSASPVKFYKVCVSVVSEKCRIDTEILPSLFMRCTTDPNRKDRFPAITHLKFLARDMSEQVLLCASSQTSSLVECWSLRKEGLPVNNIFQQISPVVGDKQPMILKWRILSATNDLDRVSAVALPKLPISLTNTDLKVASDTQFYPGLGLALAFQDGSVHMVHRLSLQTMAVFYSSAPRSLDEPALKRPRTTCPAVHFKAMQLSWTSLALVGIDNHGKLSMLRISPSLGHPLEPKLALQHLLFLLEYCMVTGYDWWDILLHVQPGMVQSLVERLHEEYTRQKPALQQVLSTRILAMKASLCKLSPCTVARVCDYHTKLFLMAITSTLKSLLRPHFLNTPDKSPGDRLAEICAKITDVDIDKVMINLKTEEFVLDMNTLQALQQLLQWVGDFVLYLLVSLPNQGSPLRPGHSFLRDGTSLGMLRELMVVIRIWGLLKPSCLPVYTATSDTQDSMSLLFRLLTKLWICCRDEGAASEPDEGLVDECCLLPSQLLVPNLDWLPASDGLVSRLQPKQPLRLRFGRAPTLPSSTSTLQLDGLTRAPGQPKIDHLRRLHLGAYPTEECKACTRCGCVTMLKSPNKTTAVTQWEQRWIKNCLCGGLWRRVPLSCS
notes: MED16, Mus musculus, endogenous lower Tail subunit of Mediator; source: endogenous, CH12 mouse B lymphoma nuclear extract; immunopurified as part of Mediator (FLAG M2 agarose, FLAG peptide elution)
Take B3: the binding result in assay [3] and in assay [4] was “binds” throughout.
